Test results: patent US20200262877A1, “ION CHANNEL-BINDING PEPTIDES AND METHODS OF USE THEREOF” (priority 2017, published 2020)

Assays:
[1] = target: T1, Kv1.1 (Homo sapiens, UniProt Q09470); assay: cell-based; type: cell-based; conditions: 100% = no change, <100% = inhibition
T1 construct: host or cells: HEK293 or CHO
In short: (§1)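 Transfected HEK293 or CHO cells were exposed for at least 5 min to peptides at 200 nM and 20 μM final, tested in duplicate, in HEPES-buffered physiological saline. Activation was taken as peptide-plus-agonist current over control current ×100, and inhibition as 1 minus that ratio ×100. Each channel's control was its own reference compound.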

[2] = target: T2, Kv1.3 (Homo sapiens, UniProt P22001); assay: cell-based; type: cell-based; conditions: 100% = no change, <100% = inhibition
T2 construct: host or cells: HEK293 or CHO
In short: as §1

[3] = target: T3, Kv1.2 (Homo sapiens, UniProt P16389); assay: cell-based; type: cell-based; conditions: 100% = no change, <100% = inhibition
T3 construct: host or cells: HEK293 or CHO
In short: as §1

[4] = target: T4, α3β4 (Homo sapiens, UniProt P30926+P32297); assay: Ion channel panel (IonWorks Barracuda): α3β4; type: cell-based; conditions: 100% = no change, <100% = inhibition
T4 construct: host or cells: HEK293 or CHO
In short: as §1

[5] = target: T5, TRPA1 (Homo sapiens, UniProt O75762); assay: Ion channel panel (IonWorks Barracuda): TRPA1; type: cell-based; conditions: 100% = no change, <100% = inhibition
T5 construct: host or cells: HEK293 or CHO
In short: as §1

[6] = target: T6, Cav2.1 (Homo sapiens, UniProt O00555); assay: cell-based; conditions: 100% = no change, <100% = inhibition
T6 construct: host or cells: HEK293 or CHO
In short: as §1

[7] = target: T7, Cav2.2 (Homo sapiens, UniProt Q00975); assay: cell-based; conditions: 100% = no change, <100% = inhibition
T7 construct: host or cells: HEK293 or CHO
In short: as §1

[8] = target: T8, Kv2.1 (Homo sapiens, UniProt Q14721); assay: cell-based; conditions: 100% = no change, <100% = inhibition
T8 construct: host or cells: HEK293 or CHO
In short: as §1

[9] = target: T9, Nav1.7 (Homo sapiens, UniProt Q15858); assay: cell-based; type: cell-based; conditions: 100% = no change; for Activity of Nav1.7 with peptide, expressed as a percentage of the reference compound: peptide at 0.2 μM; for Activity of Nav1.7 with peptide (percentage of the reference compound): peptide at 20 μM
T9 construct: host or cells: HEK293 or CHO

[10] = target: T10, 5HT3a (Homo sapiens, UniProt P46098); assay: Ion channel panel (IonWorks Barracuda): 5HT3a; type: cell-based
T10 construct: host or cells: HEK293 or CHO
T10 sequence (P46098 whole entry, looked up): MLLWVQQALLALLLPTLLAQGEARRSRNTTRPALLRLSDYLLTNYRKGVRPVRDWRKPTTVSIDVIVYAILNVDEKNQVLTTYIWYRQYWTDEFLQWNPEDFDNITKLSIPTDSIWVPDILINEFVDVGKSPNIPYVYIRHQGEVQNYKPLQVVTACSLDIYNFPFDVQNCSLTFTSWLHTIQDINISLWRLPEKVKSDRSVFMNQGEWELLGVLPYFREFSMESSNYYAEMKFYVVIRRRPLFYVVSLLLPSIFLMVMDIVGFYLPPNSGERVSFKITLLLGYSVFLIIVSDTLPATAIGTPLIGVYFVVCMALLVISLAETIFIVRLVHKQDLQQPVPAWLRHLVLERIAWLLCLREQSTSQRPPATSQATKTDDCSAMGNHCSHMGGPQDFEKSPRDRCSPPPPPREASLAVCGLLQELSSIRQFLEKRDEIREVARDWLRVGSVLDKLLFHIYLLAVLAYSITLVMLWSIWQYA
In short: as §1

[11] = system: GABA; assay: Ion channel panel (IonWorks Barracuda): GABA; type: cell-based; conditions: 100% = no change, <100% = inhibition
In short: as §1

[12] = target: T11, Kir2.1 (Homo sapiens, UniProt P63252); assay: Ion channel panel (IonWorks Barracuda): Kir2.1; type: cell-based; conditions: 100% = no change, <100% = inhibition
T11 construct: host or cells: HEK293 or CHO
In short: as §1

[13] = target: hERG (Homo sapiens, UniProt Q12809); assay: in vitro; conditions: 100% = no change, <100% = inhibition
In short: as §1

[14] = target: Nav1.5 (Homo sapiens, UniProt Q14524); assay: in vitro; conditions: 100% = no change; for Activity of Nav1.5 with peptide, expressed as a percentage of the reference compound: peptide at 0.2 μM; for Activity of Nav1.5 with peptide (percentage of the reference compound): peptide at 20 μM
In short: as §1

[15] = target: T12, TRPV1 (Homo sapiens, UniProt Q8NER1); assay: Ion channel panel (IonWorks Barracuda): TRPV1; type: cell-based; conditions: 100% = no change, <100% = inhibition
T12 construct: host or cells: HEK293 or CHO
In short: as §1

[16] = target: T13, α4β2 (Homo sapiens, UniProt P17787+P43681); assay: Ion channel panel (IonWorks Barracuda): α4β2; type: cell-based; conditions: 100% = no change, <100% = inhibition
T13 construct: host or cells: HEK293 or CHO
In short: as §1

[17] = target: T14, NR2A (Homo sapiens, UniProt Q12879); assay: Ion channel panel (IonWorks Barracuda): NR2A; type: cell-based; conditions: 100% = no change, <100% = inhibition
T14 construct: host or cells: HEK293 or CHO
In short: as §1

[18] = target: T15, NR2B (Homo sapiens, UniProt Q13224); assay: Ion channel panel (IonWorks Barracuda): NR2B; type: cell-based; conditions: 100% = no change, <100% = inhibition
T15 construct: host or cells: HEK293 or CHO
In short: as §1

[19] = first of two Nav1.7 columns (probably TP1)
[20] = second of two Nav1.7 columns (probably TP2)
[21] = first of two Nav1.5 columns (probably TP1)
[22] = second of two Nav1.5 columns (probably TP2)

T9 sequence (Q15858 whole entry): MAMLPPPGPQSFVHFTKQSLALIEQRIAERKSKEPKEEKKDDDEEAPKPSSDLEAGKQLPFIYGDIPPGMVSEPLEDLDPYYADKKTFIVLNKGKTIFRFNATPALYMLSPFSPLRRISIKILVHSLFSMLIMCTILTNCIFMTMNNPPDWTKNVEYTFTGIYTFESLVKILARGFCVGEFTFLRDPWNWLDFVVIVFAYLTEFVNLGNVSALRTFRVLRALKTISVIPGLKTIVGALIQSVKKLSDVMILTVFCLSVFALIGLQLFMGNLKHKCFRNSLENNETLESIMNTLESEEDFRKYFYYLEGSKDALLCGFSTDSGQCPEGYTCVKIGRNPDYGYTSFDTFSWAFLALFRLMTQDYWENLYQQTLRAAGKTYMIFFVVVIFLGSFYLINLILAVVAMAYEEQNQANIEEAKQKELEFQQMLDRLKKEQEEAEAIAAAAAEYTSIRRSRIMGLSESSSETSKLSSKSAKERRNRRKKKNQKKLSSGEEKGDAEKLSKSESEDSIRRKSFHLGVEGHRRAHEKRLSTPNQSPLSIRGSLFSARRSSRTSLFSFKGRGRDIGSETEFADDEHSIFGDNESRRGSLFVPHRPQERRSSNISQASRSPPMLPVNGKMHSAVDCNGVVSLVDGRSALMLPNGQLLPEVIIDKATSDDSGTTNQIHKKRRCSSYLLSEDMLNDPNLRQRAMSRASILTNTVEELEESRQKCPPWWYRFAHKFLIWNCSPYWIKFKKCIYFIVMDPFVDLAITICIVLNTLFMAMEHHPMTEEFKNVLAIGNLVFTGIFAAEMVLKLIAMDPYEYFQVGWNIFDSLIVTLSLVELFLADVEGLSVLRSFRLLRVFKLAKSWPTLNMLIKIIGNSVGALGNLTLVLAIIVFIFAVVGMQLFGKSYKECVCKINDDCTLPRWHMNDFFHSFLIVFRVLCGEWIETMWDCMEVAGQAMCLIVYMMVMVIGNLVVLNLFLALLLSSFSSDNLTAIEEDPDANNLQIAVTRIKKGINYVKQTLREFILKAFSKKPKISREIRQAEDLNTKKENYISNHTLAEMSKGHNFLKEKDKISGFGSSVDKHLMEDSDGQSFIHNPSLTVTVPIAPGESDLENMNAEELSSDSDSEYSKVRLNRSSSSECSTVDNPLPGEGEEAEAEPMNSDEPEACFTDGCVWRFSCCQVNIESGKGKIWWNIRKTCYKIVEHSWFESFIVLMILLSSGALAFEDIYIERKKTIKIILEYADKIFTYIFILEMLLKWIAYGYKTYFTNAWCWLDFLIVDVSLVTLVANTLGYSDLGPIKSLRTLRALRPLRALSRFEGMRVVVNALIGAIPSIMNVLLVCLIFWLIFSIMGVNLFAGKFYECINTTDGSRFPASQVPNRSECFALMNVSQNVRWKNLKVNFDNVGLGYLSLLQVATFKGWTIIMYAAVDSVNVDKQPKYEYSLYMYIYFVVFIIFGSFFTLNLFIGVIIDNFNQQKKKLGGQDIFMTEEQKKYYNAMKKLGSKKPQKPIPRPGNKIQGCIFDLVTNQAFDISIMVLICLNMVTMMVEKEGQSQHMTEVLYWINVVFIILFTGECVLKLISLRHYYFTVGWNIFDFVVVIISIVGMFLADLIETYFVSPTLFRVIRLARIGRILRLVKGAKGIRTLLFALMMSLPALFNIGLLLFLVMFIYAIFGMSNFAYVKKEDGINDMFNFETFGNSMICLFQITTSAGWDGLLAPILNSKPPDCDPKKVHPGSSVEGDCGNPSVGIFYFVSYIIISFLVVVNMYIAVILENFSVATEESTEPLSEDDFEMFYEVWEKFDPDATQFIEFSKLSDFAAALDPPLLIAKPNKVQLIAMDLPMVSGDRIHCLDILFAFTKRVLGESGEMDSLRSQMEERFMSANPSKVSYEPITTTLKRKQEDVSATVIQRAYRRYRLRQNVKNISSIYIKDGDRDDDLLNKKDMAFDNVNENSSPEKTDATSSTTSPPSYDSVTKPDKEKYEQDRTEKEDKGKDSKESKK
Chain of Nav1.5 (Q14524 whole entry): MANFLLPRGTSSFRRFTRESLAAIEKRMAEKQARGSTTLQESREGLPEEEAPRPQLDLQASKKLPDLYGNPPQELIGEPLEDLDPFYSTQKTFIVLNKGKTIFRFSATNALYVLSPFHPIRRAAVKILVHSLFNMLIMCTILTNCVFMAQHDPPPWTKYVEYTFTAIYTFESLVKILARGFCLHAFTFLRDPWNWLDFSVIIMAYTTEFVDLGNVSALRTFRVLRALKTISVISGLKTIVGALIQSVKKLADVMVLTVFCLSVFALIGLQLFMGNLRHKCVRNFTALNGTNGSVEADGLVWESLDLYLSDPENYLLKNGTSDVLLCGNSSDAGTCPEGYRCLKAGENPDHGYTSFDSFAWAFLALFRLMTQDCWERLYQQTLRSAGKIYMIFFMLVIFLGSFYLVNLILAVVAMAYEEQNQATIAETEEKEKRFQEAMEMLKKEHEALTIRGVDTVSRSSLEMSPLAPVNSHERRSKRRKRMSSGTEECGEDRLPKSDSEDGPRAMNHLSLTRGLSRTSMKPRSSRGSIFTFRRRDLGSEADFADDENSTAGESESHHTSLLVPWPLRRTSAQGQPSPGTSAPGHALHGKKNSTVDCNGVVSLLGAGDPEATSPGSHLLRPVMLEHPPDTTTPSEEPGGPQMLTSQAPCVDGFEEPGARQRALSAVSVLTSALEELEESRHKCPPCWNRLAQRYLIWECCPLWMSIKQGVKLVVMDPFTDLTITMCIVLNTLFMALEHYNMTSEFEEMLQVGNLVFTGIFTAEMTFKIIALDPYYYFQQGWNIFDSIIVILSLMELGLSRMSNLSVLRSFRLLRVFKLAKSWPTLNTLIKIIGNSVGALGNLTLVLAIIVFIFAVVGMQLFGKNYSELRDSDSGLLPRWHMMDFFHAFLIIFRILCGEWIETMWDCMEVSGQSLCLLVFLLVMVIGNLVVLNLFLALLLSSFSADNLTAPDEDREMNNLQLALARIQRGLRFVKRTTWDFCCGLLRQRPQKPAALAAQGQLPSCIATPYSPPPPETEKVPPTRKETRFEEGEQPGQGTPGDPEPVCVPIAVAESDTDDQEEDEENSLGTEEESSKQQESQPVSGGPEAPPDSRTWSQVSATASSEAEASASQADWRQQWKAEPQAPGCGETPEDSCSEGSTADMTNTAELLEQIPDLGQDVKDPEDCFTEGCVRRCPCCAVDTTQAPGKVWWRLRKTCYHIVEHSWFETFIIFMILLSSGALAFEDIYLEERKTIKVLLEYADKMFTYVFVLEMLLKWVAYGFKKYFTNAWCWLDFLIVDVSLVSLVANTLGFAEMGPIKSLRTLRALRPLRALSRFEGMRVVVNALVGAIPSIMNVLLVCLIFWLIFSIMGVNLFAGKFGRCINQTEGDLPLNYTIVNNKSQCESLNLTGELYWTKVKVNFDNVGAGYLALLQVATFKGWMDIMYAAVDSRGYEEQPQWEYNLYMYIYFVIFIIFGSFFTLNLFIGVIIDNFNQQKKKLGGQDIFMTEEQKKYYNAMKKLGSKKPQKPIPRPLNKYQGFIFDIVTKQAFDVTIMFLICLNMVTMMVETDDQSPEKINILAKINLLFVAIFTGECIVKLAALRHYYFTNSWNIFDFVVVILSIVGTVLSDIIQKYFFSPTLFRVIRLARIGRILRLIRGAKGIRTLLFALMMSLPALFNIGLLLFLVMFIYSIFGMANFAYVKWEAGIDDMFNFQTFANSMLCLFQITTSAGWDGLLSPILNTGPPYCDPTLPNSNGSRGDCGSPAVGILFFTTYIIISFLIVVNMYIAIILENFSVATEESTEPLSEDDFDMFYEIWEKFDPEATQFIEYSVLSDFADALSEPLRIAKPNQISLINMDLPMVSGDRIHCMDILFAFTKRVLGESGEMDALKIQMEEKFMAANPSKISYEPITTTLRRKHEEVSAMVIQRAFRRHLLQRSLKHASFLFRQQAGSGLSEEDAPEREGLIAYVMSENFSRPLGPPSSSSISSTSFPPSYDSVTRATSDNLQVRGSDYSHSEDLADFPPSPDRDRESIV
T4 sequence (P30926 22-498): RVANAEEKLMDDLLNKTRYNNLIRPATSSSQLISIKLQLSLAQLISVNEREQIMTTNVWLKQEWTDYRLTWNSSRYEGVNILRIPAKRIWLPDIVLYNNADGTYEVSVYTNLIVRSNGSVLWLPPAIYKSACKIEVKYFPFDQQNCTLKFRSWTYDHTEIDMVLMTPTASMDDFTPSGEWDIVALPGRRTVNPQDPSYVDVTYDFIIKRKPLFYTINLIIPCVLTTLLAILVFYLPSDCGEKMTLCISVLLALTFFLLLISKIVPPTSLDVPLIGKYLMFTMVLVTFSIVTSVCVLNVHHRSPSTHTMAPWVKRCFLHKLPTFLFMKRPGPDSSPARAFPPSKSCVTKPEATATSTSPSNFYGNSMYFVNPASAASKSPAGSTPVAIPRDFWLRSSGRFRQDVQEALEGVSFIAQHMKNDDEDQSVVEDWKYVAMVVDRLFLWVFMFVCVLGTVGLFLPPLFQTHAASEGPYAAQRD
T4 sequence (P32297 32-505): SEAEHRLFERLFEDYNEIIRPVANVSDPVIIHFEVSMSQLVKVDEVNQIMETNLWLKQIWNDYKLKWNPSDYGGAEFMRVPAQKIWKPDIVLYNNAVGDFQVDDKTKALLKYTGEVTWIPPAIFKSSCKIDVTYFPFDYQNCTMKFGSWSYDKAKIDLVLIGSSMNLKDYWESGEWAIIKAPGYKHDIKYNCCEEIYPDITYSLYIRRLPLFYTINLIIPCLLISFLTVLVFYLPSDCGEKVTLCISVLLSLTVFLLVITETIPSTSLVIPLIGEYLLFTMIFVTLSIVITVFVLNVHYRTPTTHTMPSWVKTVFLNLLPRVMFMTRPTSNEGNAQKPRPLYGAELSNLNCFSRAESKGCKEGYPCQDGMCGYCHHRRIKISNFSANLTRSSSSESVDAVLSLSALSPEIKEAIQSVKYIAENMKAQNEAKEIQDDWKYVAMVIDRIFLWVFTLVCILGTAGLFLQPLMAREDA

12 (GSNFKVEGACSKPCRKYCIDKGARNGKCINGRCHCYY) [compound 12]
Activity of Kv1.1 with peptide, expressed as a percentage of the reference compound ([1]; peptide at 0.2 μM): 107%
Activity of Kv1.1 with peptide (percentage of the reference compound) ([1]; peptide at 20 μM): 84%
Activity of Kv1.3 with peptide, expressed as a percentage of the reference compound ([2]; peptide at 0.2 μM): 68%
Activity of Kv1.3 with peptide (percentage of the reference compound) ([2]; peptide at 20 μM): 23%
Activity of Kv1.2 with peptide, expressed as a percentage of the reference compound ([3]; peptide at 0.2 μM): 88%
Activity of Kv1.2 with peptide (percentage of the reference compound) ([3]; peptide at 20 μM): 41%
Activity of a3b4 with peptide, expressed as a percentage of the reference compound ([4]; peptide at 0.2 μM): 103%
Activity of a3b4 with peptide (percentage of the reference compound) ([4]; peptide at 20 μM): 94%
Activity of TRPA1 with peptide, expressed as a percentage of the reference compound ([5]; peptide at 0.2 μM): 129%
Activity of TRPA1 with peptide (percentage of the reference compound) ([5]; peptide at 20 μM): 80%
Activity of Cav2.1 with peptide, expressed as a percentage of the reference compound ([6]; peptide at 0.2 μM): 109%
Activity of Cav2.1 with peptide (percentage of the reference compound) ([6]; peptide at 20 μM): 104%
Activity of Cav2.2 with peptide, expressed as a percentage of the reference compound ([7]; peptide at 0.2 μM): 115%
Activity of Cav2.2 with peptide (percentage of the reference compound) ([7]; peptide at 20 μM): 115%
Activity of Kv2.1 with peptide, expressed as a percentage of the reference compound ([8]; peptide at 0.2 μM): 104%
Activity of Kv2.1 with peptide (percentage of the reference compound) ([8]; peptide at 20 μM): 113%
Activity of Nav1.7 with peptide, expressed as a percentage of the reference compound [9, 19]: 61%
Activity of Nav1.7 with peptide, expressed as a percentage of the reference compound [9, 20]: 66%
Activity of Nav1.7 with peptide (percentage of the reference compound) [9, 19]: 74%
Activity of Nav1.7 with peptide (percentage of the reference compound) [9, 20]: 63%
Activity of 5HT3a with peptide (percentage of the reference compound) [10]: 97%
Activity of 5HT3a with peptide, expressed as a percentage of the reference compound [10]: 96%
Activity of GABA with peptide, expressed as a percentage of the reference compound ([11]; peptide at 0.2 μM): 102%
Activity of GABA with peptide (percentage of the reference compound) ([11]; peptide at 20 μM): 93%
Activity of Kir2.1 with peptide, expressed as a percentage of the reference compound ([12]; peptide at 0.2 μM): 97%
Activity of Kir2.1 with peptide (percentage of the reference compound) ([12]; peptide at 20 μM): 102%
Activity of hERG with peptide, expressed as a percentage of the reference compound ([13]; peptide at 0.2 μM): 89%
Activity of hERG with peptide (percentage of the reference compound) ([13]; peptide at 20 μM): 81%
Activity of Nav1.5 with peptide, expressed as a percentage of the reference compound [14, 21]: 98%
Activity of Nav1.5 with peptide, expressed as a percentage of the reference compound [14, 22]: 95%
Activity of Nav1.5 with peptide (percentage of the reference compound) [14, 21]: 131%
Activity of Nav1.5 with peptide (percentage of the reference compound) [14, 22]: 136%
Activity of TRPV1 with peptide, expressed as a percentage of the reference compound ([15]; peptide at 0.2 μM): 97%
Activity of TRPV1 with peptide (percentage of the reference compound) ([15]; peptide at 20 μM): 78%
Activity of a4b2 with peptide, expressed as a percentage of the reference compound ([16]; peptide at 0.2 μM): 97%
Activity of a4b2 with peptide (percentage of the reference compound) ([16]; peptide at 20 μM): 84%
Activity of NR2A with peptide, expressed as a percentage of the reference compound ([17]; peptide at 0.2 μM): 94%
Activity of NR2A with peptide (percentage of the reference compound) ([17]; peptide at 20 μM): 91%
Activity of NR2B with peptide, expressed as a percentage of the reference compound ([18]; peptide at 0.2 μM): 122%
Activity of NR2B with peptide (percentage of the reference compound) ([18]; peptide at 20 μM): 83%
